Tested on: Saccharomyces cerevisiae
Assay: transcriptional activation domain activity (GFP:mCherry ratio, weighted mean of sorted bins, harmonized to initial dataset scale) (arbitrary fluorescence ratio units); higher = stronger transcriptional activation
Conditions: beta-estradiol 1 µM; induction time 4 h
In short: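 Sorting into 8 bins by GFP:mCherry ratio followed a 4-hour hold at 30 °C after cultures were diluted 1:5 into SC with 1 uM beta-estradiol. The yeast diploids carried a GFP reporter and had barcoded protein tiles, fused to an estradiol-inducible synthetic transcription factor, integrated at URA3. Barcodes were then sequenced, and tiles with under 50 reads were removed. Activation activity is the read-weighted mean of bin median fluorescence, averaged across barcodes and linearly mapped onto the initial dataset scale.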

Row | Sequence | transcriptional activation domain activity
1 | ESEVAVVVHIGANTTAYQFLALCAMMAPMRDLFYAFGRVTIYALAPMFHAVRV | 73900
2 | ESFKPAPAPKKEEAPKEEAKPAEEGAKAEEAPKEGENKEEAKPAEEPKRRSAS | 28400
3 | ESGCGREDMTVKSGIVFSFYFFCCLFFFLLSLFVCFPPPFFFILLFPIFIHLY | 18900
4 | ESGESEESGRARSRRKRRRREERRGEEGKRRTRAGVRRSKGRKTERASTAGTD | 43100
5 | ESGSGSGSESGDSKDTAKAQGRGRKRGRESENHSSEDEEESVERKPRKARKFR | 36100
6 | ESGWIYVSVTTFFTSIALLGVMIACMVLRTHLFIWTVFSPKYLYSMAWSLGQH | 55900
7 | ESHLVPEASKIWKPLDGYWMPSWMKYQIFIPLFMLQLLNLFWYFLIWHILIRA | 44900
8 | ESKDKSKEGKSKRGDKTLDTKGKSEEENKKGGDKKDEKKKDEKKKEEEEKEKA | 25400
9 | ESKNKAEEETEEGEGARGEEEEEEKEEQGESDNEDANSAEADKTKSKQGKKQR | 31900
10 | ESLKHHEGINMVWKKFQSIFRIIEGIVYYEPVYRAFVRHILHHLHLDNVLWVD | 70300
11 | ESLREIGLTSVRDIITRHASEQAILTVVDFPLRVLAMIAQIRCGLWVRNGFVI | 77800
12 | ESNVAGTAGSKPRKPRAKTQKKMRPSENSQAEKSDRSATRKSREPTGTRRGRK | 24800
13 | ESNVEAGKAEAEKAVEEAAGAEGEGGEEKAVEEEVAEGAEGEAAEGEAAEGEA | 32600
14 | ESPSPDQEEEVEDRENDKPKANTAKKAKPAEGKKTGGRKKAALGGAAKKKAEK | 43300
15 | ESPSQINDFIPQKLIIEPNTLELNGLTEETPHDLPKNTAKGRDEEDFPLDYFP | 55200
16 | ESSEEDEEGGEGEGRKAKRNRMALSCKECKRRKIKCDRAMPSCGPCSKRGASS | 27200
17 | ESSGGESEDDYVQEKRSSKPKRRGSRRGDEEEGGGGRKRAAQKKRKRKQPEEV | 34800
18 | ESSLSDKAEPKKEDSGKMAEAPKPAPEPKKEPKKEESKPAAKQESKKEVEEKA | 35200
19 | ESSSDEEEMTVAQKMAAQRKAEAAARRAKAHEEALAARSKDDLRSPICCILGH | 53200
20 | ESSSSTGAEEKKKKKKSSKDKKRKAEDEDDATDGAEEKKSKKVKASEDEPARK | 14100
21 | ESVRQHIVTETKNRVETYLAHCNPIVPHQRLTLLLARLLLRKLDFVTRLQWIL | 50300

Row | Sequence | transcriptional activation domain activity
22 | ESVSESESASASESAAEEASAAPEEDAMWSNIMKKFARRDEEESVSESASASE | 54900
23 | ETAKIDIEKQSNGETDISVLRNHAPGTAPTEEENLEKNMAPLRKLIRLLLLNT | 39100
24 | ETAPATEEKPVEETKPAEEAAKTEEEKKEDEAKPIEEGHLNHKAQGLSFPKNL | 55000
25 | ETCGRCRGQGVVIQKAQLAPGIFQQMQMQCDQCGGQGTQIKHRCKVCGGARVV | 52100
26 | ETEGAEETSDAEGNESAGKQKKRARKSSHASSRSRTGAQNKKSTVEQKSTFRG | 51600
27 | ETEGFAKMAKAMGFGVYGLPSYIIKHIYNNCTHLFVVWHYGTLLIHLTAYPSF | 73700
28 | ETGSEWREGSSDGFRSVKTVLLGVWAEYGGLRRNEICDTLRRLTLSSLGKINP | 53800
29 | ETIHGPAPATSFDDTNFTWQLFDESPGFDPLAQLQSFSDFGLSGHDLLFGFMD | 123000
30 | ETKGASGEGGKSTSESGSASSSSSKGEGKAAGEQGSSGSSSGSSSESGSKEKT | 30100
31 | ETPAAEPVKETETAAEAAPAEAAAEATPEEAKEEKKEEKKEEKVKGSKVGRRL | 32500
32 | ETSDEAKSEDSSSDEGDDSSSSEDDGRKRSRKKSVIKMRKTKAKKTKKKGKKS | 39300
33 | ETVEEPAPKRGKATRTKAAEPAPVEEAPKPAAKPRGRAAAKKATEPAAEAEVE | 35500
34 | ETVLKDLKSNQNIDTTVQKLFANCLFYARRIALIHPNLTSIKALLLLMVALEC | 81600
35 | ETVQKYDGYRPDILSIWNNEFYPIGKYNDDMTGFKFQMRIKEMQEFLDMEKYS | 68500
36 | ETYLFLQDQDESADSHHHDELGSEITLADNKFSYLPPTLEELMEEQDCNNGRS | 84700
37 | EVAANHRTILDHTMSLVSAVHIACLRFMTVAWAQAYRRYIVAWIRDLQVLHPH | 70400
38 | EVAEEAAAAAAPEKKTRRGASKKAAAEKAAAAEEEGEKAAQKAEKAAEKAAEK | 33200
39 | EVDAEAAEKPVKRLTRKARGVTEENQTSDAQSSRPAPVRRGRKPASVASTTAP | 54700
40 | EVDEAAVKMVKRARRERRAAEKEASGEAEHAAGVEKKPKRRSSRKKKEEGEGG | 31400
41 | EVDMTPADALDDFDLEMLGDVESPSPGMTHDPVSYGALDVDDFEFEQMFTDAL | 112000
42 | EVEAAIAAAAAEVEKVEVKAKAKAEAAAAAAAAAEAAAAAEARAAAAAAAQAA | 30700

Row | Sequence | transcriptional activation domain activity
43 | EVEGEGEDGEEEAAPPPKKVRASGRSKKIEYKEESEEEAPAPKKTRGKKAATK | 6720
44 | EVETRYTLAIELFQPILKVLVDFESDDLKFGFLVAWLVGLYRRLWELCVFKYI | 58900
45 | EVGADGGAAADEEEEEESDEEGEDGGRKRKKPKVAAEKPERKASAAPADGEKK | < 6570
46 | EVGAKTFLAGLAGSGGSGGVYRCVIDKSRPAVWRLRKNDAPLSSFAAALLVSN | 72500
47 | EVHLHIRKVYRHYDDLEHLGRRKFNFLTLVIRHLLDIVGIDSPWALFSRKPQQ | 63000
48 | EVIAGQQYAGLSFFAFVLRQDDIKSLDLILAEYFKVPTALDIIRSSLYLAIYS | 48600
49 | EVKAESKPESKVEPKTEAKPEPKAEPKSEPKVEPKKSESSKKNKKKKAKKAAA | 33700
50 | EVKDKVWFLEGVTQVLPQDVDEYSGGGGMHMMLDFLGGGLPSMTTTNFSDFSL | 113000
51 | EVKETKEGESQSPAKQEVVQEETVKPSPPQPPQQTKQQKKKKLVLTSGGGGRG | < 6570
52 | EVKLEEAEATGASVKRKSRKSKIETDIADGADNEATPSGSRRRGRPRKSQPDP | 59400
53 | EVLHLFIHFSFIFALYMLCFFLPAKHLCNLLTWYKYLFFLLSIMLFFLILIGT | 64200
54 | EVLITKKPAKQTRGKKAPTAAVNKAEIEEGQDDVNFANVGRGRKRAVAKKVVE | 25700
55 | EVLLLLMWMFWTKVVKIIPHFLRHPSDFPLVICQILFGYAHSFIKLWALVTFW | 47200
56 | EVMKIHPVQKQTRAGQRTRFKAYVVVGDSNGHVGLGVKCSKEVATAIRSAIIL | 38700
57 | EVMKIMPVQKQTRAGQRTRFKAFVVIGDSDGHVGLGVKCAKEVATAIRGAIIL | 55300
58 | EVMKIMPVQKQTRAGQRTRFKAFVVIGDSEGHVGLGVKCAKEVATAIRGAIIL | 56900
59 | EVMKITPVQKQTRAGQRTRFKAFVAIGDSNGHVGLGVKCAKEVASAIRGAIIL | 61100
60 | EVMKVTPVQKQTRAGQRTRFKAFVAIGDYDGHVGLGVKCAKEVASAIRGAIIL | 48700
61 | EVNYLYGLILLQFYTGFIHDIIFGSGHLPFLPLMITSIYCSLGVVYGWGYFML | 51000
62 | EVRELHLIDRTLDELRTVQLTLTMLHLICAPKPVFHLLRSVVLQCAEPKGLLT | 46300
63 | EVSEESGDSGDDEGRKEKKKRKRVKEEEVEDEGERKKKKSKKSKDEKSAEKAD | 47600

Row | Sequence | transcriptional activation domain activity
64 | EVSFVALLLVWTYMRHYLNCKILYSVWTEFDLIPHHFRSWVHEPGYPHDIRGW | 45000
65 | EVSIDGVQTVTYCGRDALPEHDKVTEVGWVLDRGILKLGVLYLWLNCRHMCVT | 65400
66 | EVTEAEANGETPNAEGVTPAEGEQKPKKKRKSNRKKKAAATPAEGEAAKEAPA | 34500
67 | EVVLLPDLCGFCCFSMRFVVLLDLIGTLTLPVTACYLVYLIYVIASGNGPFPL | 46800
68 | EVYFGLVNRRFRELLLVHERCFDLKVPNYRLMSILLAYLLRHTMVTPKVKYPE | 29700
69 | EVYLLRFEQCLTRAMTLIRMFFVGSLRALTQDVSRRLAEKDVSQTAQTHLLYT | 46300
70 | EWAPDVLRKSAKTFTQEGPMVKLQIVTLAAKLLVLSPVDPRLTLLCRYVFSLA | 46000
71 | EWFVMFCMMLLLLFWFFPISALASLLSYEEIKKIMPWLGRLIDANENIRAIVQ | 62900
72 | EWMKVVYGFDQKPIPSGACSGSIAKIFGTNTSAFELLVLKRRIMGPCWIQIKK | 55800
73 | EWNRSVNSTYPLLYRGVDFLQKSLSWLKILRLSYLHPLQFFGCFGFGLLVVHI | 60200
74 | EWTRLVQNPAASPRLLNGFIRQMLADLPTTSILVLVRTALEVSVESYAQAGST | 58700
75 | EWVIGWCKQIGLPDGVTEFIGRSYIMTAEAYLDLPMSKQVLVPVVAINTLVFV | 34200
76 | EYAEWLLQPEQNNGTWVADVLWPAIDLDLEWIALNWNQSSWDLWWPPVWAGSF | 107000
77 | EYAPKTPVVAAAVPKEEKKEEKAEEVKEAKEEENKEIKDEKKDTRKSRSASRK | < 6570
78 | EYDEDAARRIAERVHARAIGLTCGAAPPQVGGRSCASAVWSPIRVAVSTVCIQ | 44700
79 | EYFYYKMLAPSAATVFYVYVGLIKMSIALFNIRLTTLTTKLWGNVNWAFFVIC | 63000
80 | EYLDKLLAEFEEFDYSINRVLPDVIDFSALIGQDSSANNQIFSSEFSSDPTVN | 139000
81 | EYMGKETGSHHLGREGEEKTYAVRRDYESRNRVALTPERNAVEIVRVRTQAAP | 19700
82 | EYVRETTPEKEGGGRRRQKREDVTSGEEDAPDAVEKGKKRKRSAAGGAGAGKK | 48300
83 | EYVSLCRTFATREMLKVAIFANIFSKMTRTLACLFVTRISSHVNRLRALLQPI | 61700

Source: the supplement of paper PMC12636428
